Target: the molecule itself
Assay: crystal structure; Hg(II)-bound truncated MerR (equimolar HgCl2); sitting-drop vapor diffusion at 16 °C, 0.1 M KCl, 0.01 M MgCl2, 0.1 M Tris pH 8.5, 30% PEG200; space group P3(1)21, one dimer in the asymmetric unit; Hg SAD, 2.8 Å

B1: C-terminal truncated Tn501 MerR (MerRTC10), mercury(II)-bound (domain or fragment, Pseudomonas aeruginosa, UniProt P0A183 1-134, looked up)
chain: MENNLENLTIGVFAKAAGVNVETIRFYQRKGLLLEPDKPYGSIRRYGEADVTRVRFVKSAQRLGFSLDEIAELLRLEDGTHCEEASSLAEHKLKDVREKMADLARMEAVLSELVCACHARRGNVSCPLIASLQG
notes: Mercuric resistance operon regulatory protein MerR of transposon Tn501, Pseudomonas aeruginosa; the last ten C-terminal residues were truncated; synthesized and codon-optimized merR gene; also called Hg2+-MerR; C-terminally truncated Tn501 MerR; source: E. coli BL21 (DE3), pET-30a, purified (HiTrap Phenyl FF, HisTrap HF, Superdex200 gel filtration)
stoichiometry N: 2

Source: publication PMC5027573, “Structural Analysis of the Hg(II)-Regulatory Protein Tn501 MerR from Pseudomonas aeruginosa” (Scientific Reports, 2016)
